Like-named read-outs stand apart in the source and are kept apart here. Values belong to the molecule of their own block, whether it stands above or below them. Square brackets hold non-standard residues; d marks the D form. Peptide text beside a SMILES is read from it. * marks the point of attachment. Ala(1H-tetrazol-5-yl) = N[C@@H](Cc1nnn[nH]1)C(=O)O; Nle = CCCC[C@H](N)C(=O)O; Ms = CS(=O)(=O)*
Tests used:
[1] = Peptide stability test, phosphate buffer (pH 7.0), 40° C. storage, HPLC remaining rate; format: physicochemical; settings: for remaining rate after correction for water, 40° C., 1 month preservation / remaining rate after correction for water, 40° C., 2 months preservation: 100 μM in phosphate buffer pH 7.0; for stability in aqueous solution (in words), 40° C. storage: phosphate buffer pH 7.0, 1 or 2 months
Procedure: Peptides 1 and 3 to 5 synthesized in Example 2 were weighed and dissolved in phosphate buffer (pH 7.0) to prepare 1.0 mM peptide solutions. The 1.0 mM peptide solutions were then diluted with phosphate buffer to 100 μM. After filtering with Chromatdisk (product of Merck Millipore, Millex-GV, 0.22 μm), each filtrate was dispensed into an LC vial (Waters Deactivated […] prepared peptide solutions were incubated for one month or 2 months in a 40° C. thermostatic bath to obtain stored samples. A simultaneously prepared sample among the peptide solutions that was not stored was used as a standard sample (initial sample). The standard sample and the stored samples were stored at -30° C. until sample analysis. Using the total weight of the aqueous peptide solution and storage vessel as the specimen weight, measurements were recorded as the specimen weights before storage and the specimen weights after storage under different storage conditions. The empty weight of the storage vessel was also measured, and the moisture permeability was determined by the following formula. After stirring the standard sample and the stored samples with a vortex mixer, each peptide solution was transferred to an HPLC vial (Deactivated Qsert vial by Waters Co.). Reverse-phase HPLC (HPLC system: Prominence by Shimadzu Corp.) was conducted under the conditions shown in Table 3 below for analysis of the peptide solutions, and chromatograms were obtained. Guard column: XSelect CSH C18 by Waters Co., 5 μm, 4.6×20 mm Guard Cartridge Detection wavelength: 220 nm Mobile phase A: 0.1% formic acid aqueous solution Mobile phase B: 0.1% acetonitrile formate solution Measuring time: 30 minutes Measuring sample injection rate: 50 μL Flow rate: 1.0 mL/min Sample cooler: 4° C. Column temperature: 40° C. Mobile phase delivery: The mixing ratio of mobile phase A and mobile phase B was varied as shown in Table 3 for linear concentration gradient control. The peak area value for the peptide in the chromatogram was calculated, and the remaining rate (remaining rate before correction for water) was calculated using formula (2). The remaining rate after correction for water was also calculated from the remaining rate before correction for water using formula (3), taking into account the moisture permeability of the vessel. Peptides 10 and 11 synthesized in Example 2 were weighed and dissolved in phosphate buffer (pH 7.0) to prepare 1.0 mM peptide solutions. Each solution was filtered with a Chromatdisk (product of Merck Millipore. Millex-GV, 0.22 μm). Each filtrate was diluted to 100 μM with phosphate buffer (pH 7.0) and dispensed into a tube (Protein LoBind Tube by Eppendorf Co.). The prepared peptide solutions were incubated for one month or 2 months in a 40° C. thermostatic bath to obtain stored samples. A simultaneously prepared sample among the peptide solutions that was not stored was used as a standard sample (initial sample). The standard sample and the stored samples were stored at -30° C. until sample analysis. The remaining rate after correction for water for each peptide among the stored samples was measured in the same manner as Example 4, and the results are shown in Table 8.

PAC1 receptor [2] = target: T1, PAC1 receptor (UniProt P41586 21-468, limits assumed); assay: cell-based or functional assay
T1 sequence (looked up): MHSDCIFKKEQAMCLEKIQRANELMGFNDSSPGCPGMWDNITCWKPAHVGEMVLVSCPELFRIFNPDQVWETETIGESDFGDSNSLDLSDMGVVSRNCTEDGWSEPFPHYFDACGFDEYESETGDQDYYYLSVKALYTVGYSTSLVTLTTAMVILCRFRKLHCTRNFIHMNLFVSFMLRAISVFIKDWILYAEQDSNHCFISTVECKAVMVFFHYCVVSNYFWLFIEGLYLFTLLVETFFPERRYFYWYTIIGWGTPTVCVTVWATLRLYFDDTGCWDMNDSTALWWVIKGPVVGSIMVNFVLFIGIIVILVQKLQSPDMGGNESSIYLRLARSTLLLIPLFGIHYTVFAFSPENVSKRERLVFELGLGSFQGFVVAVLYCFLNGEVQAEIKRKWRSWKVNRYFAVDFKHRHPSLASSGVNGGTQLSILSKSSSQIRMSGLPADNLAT

VPAC1 receptor [3] = target: T2, VPAC1 receptor (UniProt P32241 31-457, limits assumed); assay: cell-based or functional assay
T2 sequence (looked up): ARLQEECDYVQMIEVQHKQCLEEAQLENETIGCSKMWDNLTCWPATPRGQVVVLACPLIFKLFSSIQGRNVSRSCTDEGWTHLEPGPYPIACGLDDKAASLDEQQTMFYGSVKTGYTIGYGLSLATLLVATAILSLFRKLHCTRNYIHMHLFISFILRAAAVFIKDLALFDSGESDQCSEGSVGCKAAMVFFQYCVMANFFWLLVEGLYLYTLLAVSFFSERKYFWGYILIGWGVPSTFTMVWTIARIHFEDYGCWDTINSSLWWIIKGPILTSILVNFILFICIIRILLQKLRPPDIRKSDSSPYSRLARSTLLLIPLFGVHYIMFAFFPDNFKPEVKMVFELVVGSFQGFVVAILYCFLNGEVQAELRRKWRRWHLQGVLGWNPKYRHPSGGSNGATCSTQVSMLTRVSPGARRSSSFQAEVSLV

PAC1 receptor [4] = target: T1, PAC1 receptor; assay: cell-based or functional assay; remark: listed apart in the source
VPAC1 receptor [5] = target: T2, VPAC1 receptor; assay: cell-based or functional assay; remark: listed apart in the source
[6] = Table 8, measured as in Example 4

Molecule: CC[C@H](C)[C@H](NC(=O)CNC(=O)[C@H](Cc1nnn[nH]1)NC(=O)[C@H](CO)NC(=O)[C@@H](N)Cc1c[nH]cn1)C(=O)N[C@@H](Cc1ccccc1)C(=O)N[C@H](C(=O)N[C@@H](Cc1nnn[nH]1)C(=O)N[C@@H](CO)C(=O)N[C@@H](Cc1ccc(O)cc1)C(=O)N[C@@H](CO)C(=O)N[C@@H](CCCNC(=N)N)C(=O)N[C@@H](Cc1ccc(O)cc1)C(=O)N[C@@H](CCCNC(=N)N)C(=O)N[C@@H](CCCCN)C(=O)N[C@@H](CCC(N)=O)C(=O)N[C@@H](CCSC)C(=O)N[C@@H](C)C(=O)N[C@H](C(=O)N[C@@H](CCCCN)C(=O)N[C@@H](CCCCN)C(=O)N[C@@H](Cc1ccc(O)cc1)C(=O)N[C@@H](CC(C)C)C(=O)N[C@@H](C)C(=O)N[C@@H](C)C(=O)N[C@H](C(=O)N[C@@H](CC(C)C)C(N)=O)C(C)C)C(C)C)[C@@H](C)O [Peptide 5] (H-HS[Ala(1H-tetrazol-5-yl)]GIFT[Ala(1H-tetrazol-5-yl)]SYSRYRKQMAVKKYLAAVL-NH2)
- remaining rate after correction for water, 40° C., 1 month preservation ([1]; Table 4, HPLC conditions 1): 94.7%
- remaining rate after correction for water, 40° C., 2 months preservation ([1]; Table 4, HPLC conditions 1): 85.6%
- stability in aqueous solution (in words), 40° C. storage [1]: further increased stability over peptide 3 and peptide 4

Molecule: CCCC[C@H](NC(=O)[C@H](CCC(N)=O)NC(=O)[C@H](CCCCN)NC(=O)[C@H](CCCNC(=N)N)NC(=O)[C@H](Cc1ccc(O)cc1)NC(=O)[C@H](CCCNC(=N)N)NC(=O)[C@H](CO)NC(=O)[C@H](Cc1ccc(O)cc1)NC(=O)[C@H](CO)NC(=O)[C@H](Cc1nnn[nH]1)NC(=O)[C@@H](NC(=O)[C@H](Cc1ccccc1)NC(=O)[C@@H](NC(=O)CNC(=O)[C@H](Cc1nnn[nH]1)NC(=O)[C@H](CO)NC(=O)[C@H](Cc1c[nH]cn1)NS(C)(=O)=O)[C@@H](C)CC)[C@@H](C)O)C(=O)N[C@@H](C)C(=O)N[C@H](C(=O)N[C@@H](CCCCN)C(=O)N[C@@H](CCCCN)C(=O)N[C@@H](Cc1ccc(O)cc1)C(=O)N[C@@H](CC(C)C)C(=O)N[C@@H](C)C(=O)N[C@@H](C)C(=O)N[C@H](C(=O)N[C@@H](CC(C)C)C(N)=O)C(C)C)C(C)C [Peptide 11] (Ms-HS[Ala(1H-tetrazol-5-yl)]GIFT[Ala(1H-tetrazol-5-yl)]SYSRYRKQ[Nle]AVKKYLAAVL-NH2)
- remaining rate after correction for water, 40° C., 1 month preservation [1, 6]: 94.2%
- remaining rate after correction for water, 40° C., 2 months preservation [1, 6]: 88.8%
- stability in aqueous solution (in words), 40° C. storage [1]: stabilized to the same degree

B1: Peptide 28 (peptide)
peptide: Ac-HS[Ala(1H-tetrazol-5-yl)]GIFT[Ala(1H-tetrazol-5-yl)]SYSRYRKAAAVKKYLAAVL-NH2
SMILES: CC[C@H](C)[C@H](NC(=O)CNC(=O)[C@H](Cc1nnn[nH]1)NC(=O)[C@H](CO)NC(=O)[C@H](Cc1c[nH]cn1)NC(C)=O)C(=O)N[C@@H](Cc1ccccc1)C(=O)N[C@H](C(=O)N[C@@H](Cc1nnn[nH]1)C(=O)N[C@@H](CO)C(=O)N[C@@H](Cc1ccc(O)cc1)C(=O)N[C@@H](CO)C(=O)N[C@@H](CCCNC(=N)N)C(=O)N[C@@H](Cc1ccc(O)cc1)C(=O)N[C@@H](CCCNC(=N)N)C(=O)N[C@@H](CCCCN)C(=O)N[C@@H](C)C(=O)N[C@@H](C)C(=O)N[C@@H](C)C(=O)N[C@H](C(=O)N[C@@H](CCCCN)C(=O)N[C@@H](CCCCN)C(=O)N[C@@H](Cc1ccc(O)cc1)C(=O)N[C@@H](CC(C)C)C(=O)N[C@@H](C)C(=O)N[C@@H](C)C(=O)N[C@H](C(=O)N[C@@H](CC(C)C)C(N)=O)C(C)C)C(C)C)[C@@H](C)O
- EC50 (PAC1R), cAMP inducing effect (PAC1 receptor [2]): 0.084 nM
- EC50 (VPAC1R), cAMP inducing effect (VPAC1 receptor [3]): 0.029 nM

B3: Peptide 27 (peptide)
peptide: Ac-HS[Ala(1H-tetrazol-5-yl)]GIFT[Ala(1H-tetrazol-5-yl)]AYSRYRKQAAVKKYLAAVL-NH2
SMILES: CC[C@H](C)[C@H](NC(=O)CNC(=O)[C@H](Cc1nnn[nH]1)NC(=O)[C@H](CO)NC(=O)[C@H](Cc1c[nH]cn1)NC(C)=O)C(=O)N[C@@H](Cc1ccccc1)C(=O)N[C@H](C(=O)N[C@@H](Cc1nnn[nH]1)C(=O)N[C@@H](C)C(=O)N[C@@H](Cc1ccc(O)cc1)C(=O)N[C@@H](CO)C(=O)N[C@@H](CCCNC(=N)N)C(=O)N[C@@H](Cc1ccc(O)cc1)C(=O)N[C@@H](CCCNC(=N)N)C(=O)N[C@@H](CCCCN)C(=O)N[C@@H](CCC(N)=O)C(=O)N[C@@H](C)C(=O)N[C@@H](C)C(=O)N[C@H](C(=O)N[C@@H](CCCCN)C(=O)N[C@@H](CCCCN)C(=O)N[C@@H](Cc1ccc(O)cc1)C(=O)N[C@@H](CC(C)C)C(=O)N[C@@H](C)C(=O)N[C@@H](C)C(=O)N[C@H](C(=O)N[C@@H](CC(C)C)C(N)=O)C(C)C)C(C)C)[C@@H](C)O
- EC50 (PAC1R), cAMP inducing effect (PAC1 receptor [2]): 0.06 nM
- EC50 (VPAC1R), cAMP inducing effect (VPAC1 receptor [3]): 0.044 nM

More lines, now with the values ahead:

- EC50 (PAC1R), cAMP inducing effect (PAC1 receptor [4]): 0.032 nM
- EC50 (VPAC1R), cAMP inducing effect (VPAC1 receptor [5]): 0.057 nM
B2: Peptide 30 (peptide)
peptide: HSXAIFTXSYSRYRKQLAVKKYLAAVL
modifications: N-terminal mesyl (Ms-); Tz (aspartic acid with carboxyl group replaced by tetrazole) at positions 3 and 8; C-terminal amide (NH2)

- EC50 (PAC1R), cAMP inducing effect (PAC1 receptor [4]): 0.025 nM
- EC50 (VPAC1R), cAMP inducing effect (VPAC1 receptor [5]): 0.09 nM
B4: Peptide 29 (peptide)
peptide: HSXGIFTXAYSRYRKQLAVKKYLAAVL
modifications: N-terminal mesyl (Ms-); Tz (aspartic acid with carboxyl group replaced by tetrazole) at positions 3 and 8; C-terminal amide (NH2)

- EC50 (PAC1R), cAMP inducing effect (PAC1 receptor [4]): 0.034 nM
- EC50 (VPAC1R), cAMP inducing effect (VPAC1 receptor [5]): 0.035 nM
B5: Peptide 31 (peptide)
peptide: Ms-HS[Ala(1H-tetrazol-5-yl)]AIFT[Ala(1H-tetrazol-5-yl)]SYSRYRKQAAVKKYLAAVL-NH2
SMILES: CC[C@H](C)[C@H](NC(=O)[C@H](C)NC(=O)[C@H](Cc1nnn[nH]1)NC(=O)[C@H](CO)NC(=O)[C@H](Cc1c[nH]cn1)NS(C)(=O)=O)C(=O)N[C@@H](Cc1ccccc1)C(=O)N[C@H](C(=O)N[C@@H](Cc1nnn[nH]1)C(=O)N[C@@H](CO)C(=O)N[C@@H](Cc1ccc(O)cc1)C(=O)N[C@@H](CO)C(=O)N[C@@H](CCCNC(=N)N)C(=O)N[C@@H](Cc1ccc(O)cc1)C(=O)N[C@@H](CCCNC(=N)N)C(=O)N[C@@H](CCCCN)C(=O)N[C@@H](CCC(N)=O)C(=O)N[C@@H](C)C(=O)N[C@@H](C)C(=O)N[C@H](C(=O)N[C@@H](CCCCN)C(=O)N[C@@H](CCCCN)C(=O)N[C@@H](Cc1ccc(O)cc1)C(=O)N[C@@H](CC(C)C)C(=O)N[C@@H](C)C(=O)N[C@@H](C)C(=O)N[C@H](C(=O)N[C@@H](CC(C)C)C(N)=O)C(C)C)C(C)C)[C@@H](C)O
